Measurements as given in patent publication US20160129078A1, “Rhomboid Proteins and Uses Thereof” (Queen's University at Kingston, priority 2014, published 2016).

B1: At1g74130 S: 6/7 S-form splice variant of Arabidopsis At1g74130 rhomboid protein (protein, listed as Arabidopsis thaliana)
chain: MHAIFCRRVAVGCSSPQLTKLVTKQASQSRHSLSHLLPFDLSSRFVPPYVVSRSARVHGFFAGKLGNTNLKLKFGNVMESRAGFFSSELPSHGFESGGFTGFQKRGWKSWINGANGVVFGLVIANAAVFTMWRVLGKDNMWMVKNFMLSRYSFMTGRIHTLITSGFSHVGATHIILNMMGLCYFGARIARSFGPRYLLKLYFAGALGGSVFFLSSHALSVISLKGQRVVPKDQLKVPIGKLGANGPVYAITLLDMLLYPKVTTYFGLMLRVPVFAVRESIA
B2: At1g74130 M: 7/8 M-form splice variant of Arabidopsis At1g74130 rhomboid protein (protein, listed as Arabidopsis thaliana)
chain: MHAIFCRRVAVGCSSPQLTKLVTKQASQSRHSLSHLLPFDLSSRFVPPYVVSRSARVHGFFAGKLGNTNLKLKFGNVMESRAGFFSSELPSHGFESGGFTGFQKRGWKSWINGANGVVFGLVIANAAVFTMWRVLGKDNMWMVKNFMLSRYSFMTGRIHTLITSGFSHVGATHIILNMMGLCYFGARIARSFGPRYLLKLYFAGALGGSVFFLSSHALSVISLKGQRVVPKDQLKVPIGKLGANGPVYAITLLDMLLYPKVTTYFGLMLRVPVFAGIYSLGLNIIKMLEVCMMGKTTIP

Columns and labels:
[1] = test system: MDA-MB-231 breast cancer cells; experiment: MTT viability assay, sensitization to lapatinib; assay type: cell-based, human; details: co-treatment with lapatinib; most prominent at 10 or 15 uM after 48 and 72 hours; 5 or 10 ug protein
From the text: (§1) Experiments were thus conducted to assess the ability of At1g74130 proteins or variants to enhance the sensitivity of two breast cancer cell lines to the chemotherapeutic drug lapatinib. The breast cancer cell lines selected for these assays were MDA-MB-231 and MDA-MB-468, two cell lines used frequently in cancer research. Any impact on the cells' ability to pump or transport drugs (in and out) may alter the efficacy a chemotherapeutic drug, e.g., by enhancing levels of cell death) or by increasing effectiveness at lower dosage levels. The design of the breast cancer cell assays was similar to that used for bacteria in the above examples, results, and figures. In these studies, the widely used MTT (methyl thiazolyl diphenyl-tetrazolium bromide) viability assay procedure was used to assess any impact exerted by At1g74130 variant S (see, for example, the MTT procedure described by Nagaria, T. S., et al., Flavopiridol synergizes with sorafenib to induce cytotoxicity and potentiate antitumorigenic activity in EGFR/HER-2 and mutant RAS/RAF breast cancer model systems, Neoplasia, 15:939-951, 2013).
(§2) Cells were cultured at 37° C. in 96-well plates (10,000 cells in 100 ul media per well) for 24-48 hours to near confluency. […] The assays were then read at 570 nm using a microplate scanning spectrophotometer. […]

[2] = test system: MDA-MB-468 breast cancer cells; experiment: MTT viability assay, sensitization to lapatinib; assay type: cell-based, human; details: co-treatment with lapatinib; most prominent at 10 or 15 uM after 48 and 72 hours; 5 or 10 ug protein
From the text: as §1, §2

Pseudomonas aeruginosa = experiment: Enhancement of peptide delivery into Pseudomonas aeruginosa; assay type: cell-based; details: nine amino acid peptides targeting Type II secretion pseudopilin subunit
From the text: With the Pseudomonas assay system described above, it was also possible to assess the ability and the utility of At1g74130 protein variants in the delivery of other peptides into cells. The assays were designed in the same manner as above to determine if peptide delivery can be enhanced or facilitated by rhomboids. The other peptides used were designed to inhibit protein secretion, in this case, lipases. The peptides used in these assays were nine amino acids long and targeted a specific region of one protein subunit of the Type II secretion machinery pseudopilin. The inhibitory actions of this nine amino acid peptide are due to interactions with the target region of the protein subunit. If peptide delivery was facilitated or enhanced by rhomboids, outcomes may be observed by changes in cell/colony growth (Pseudomonas) on the minimal media-olive oil plates. Such changes in growth would reflect changes in lipase secretion, which is needed for breaking down olive oil so that the released carbon can be used for cell growth.
The delivery of the M variant further into the cell releases the impairment and allows growth to resume (i.e., the assay with elution buffer, DMSO, and M). […]

Row | Molecule | increase in level of cell death [1] | increase in level of cell death [2] | peptide delivery into cells (Pseudomonas aeruginosa)
1 | B1 | 20 to 40% | 20 to 40% | 
2 | B2 |  |  | facilitation and/or enhancement of peptide delivery
